# Read-outs that look alike come from different tables or passages of the source.
# T1: mtSSB (Homo sapiens, UniProt Q04837 15-148)
# T1 sequence: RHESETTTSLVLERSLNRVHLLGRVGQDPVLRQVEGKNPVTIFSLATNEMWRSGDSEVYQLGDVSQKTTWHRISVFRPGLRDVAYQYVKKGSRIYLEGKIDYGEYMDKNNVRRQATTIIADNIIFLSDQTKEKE
# Legend:
# mtSSB [1] = molecular target: T1, mtSSB; test: EMSA
# mtSSB [2] = molecular target: T1, mtSSB; test: EMSA; remark: listed apart in the source
Binder,binding result (mtSSB [1]),binding result (mtSSB [2])
AGAACCUGUUGAACAAAAGC (ssRNA) [20 nt RNA probe],binds,–
AGAACCTGTTGAACAAAAGC (ssDNA) [20 nt ssDNA probe],–,binds
